Reference: US20180318386A1, “PEPTIDES AND METHODS OF TREATING ENDOMETRIOSIS USING THE SAME” (BIOINCEPT, LLC, priority 2014, published 2018)

Legend:
Experiment in all cases: PIF affinity resin pull-down, CD14+ cell lysate, LC-MS/MS count
[1] = biological target: 14-3-3 protein theta (human) (UniProt P27348)
[2] = biological target: 14-3-3 protein zeta/delta (human) (UniProt P63104)
[3] = biological target: 78 kDa glucose-regulated protein (human) (UniProt P11021)
[4] = biological target: Actinin alpha 1 isoform 3 (human) (UniProt P12814)
Actinin alpha 1 isoform 3 (human), sequence (P12814 other isoform, or with tags, fused parts or gaps): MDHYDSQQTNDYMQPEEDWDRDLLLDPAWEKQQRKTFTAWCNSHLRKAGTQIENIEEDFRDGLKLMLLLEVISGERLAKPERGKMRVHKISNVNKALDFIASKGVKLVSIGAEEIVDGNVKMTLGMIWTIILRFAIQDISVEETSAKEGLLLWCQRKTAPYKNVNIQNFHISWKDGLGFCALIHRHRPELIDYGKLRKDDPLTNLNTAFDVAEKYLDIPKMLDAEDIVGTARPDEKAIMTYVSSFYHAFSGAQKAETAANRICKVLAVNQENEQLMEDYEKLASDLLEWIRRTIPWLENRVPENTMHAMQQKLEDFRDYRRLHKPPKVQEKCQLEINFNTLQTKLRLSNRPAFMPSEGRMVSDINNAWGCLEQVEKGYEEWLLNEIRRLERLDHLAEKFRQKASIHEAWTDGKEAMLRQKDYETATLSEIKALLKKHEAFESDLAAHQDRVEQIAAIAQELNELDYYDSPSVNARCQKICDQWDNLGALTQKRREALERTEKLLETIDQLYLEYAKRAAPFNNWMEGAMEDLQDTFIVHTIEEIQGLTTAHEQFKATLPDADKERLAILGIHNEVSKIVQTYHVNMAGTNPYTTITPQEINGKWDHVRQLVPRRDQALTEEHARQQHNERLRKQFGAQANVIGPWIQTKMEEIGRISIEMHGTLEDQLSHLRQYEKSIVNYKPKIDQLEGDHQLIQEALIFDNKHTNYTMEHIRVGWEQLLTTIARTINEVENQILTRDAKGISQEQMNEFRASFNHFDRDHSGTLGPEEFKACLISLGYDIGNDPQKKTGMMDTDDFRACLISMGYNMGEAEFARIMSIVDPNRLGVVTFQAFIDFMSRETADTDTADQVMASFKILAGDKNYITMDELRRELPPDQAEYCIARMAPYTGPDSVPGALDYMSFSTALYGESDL

[5] = biological target: Bridging integrator 2 (human) (UniProt Q9UBW5)
Bridging integrator 2 (human), sequence (Q9UBW5 whole entry): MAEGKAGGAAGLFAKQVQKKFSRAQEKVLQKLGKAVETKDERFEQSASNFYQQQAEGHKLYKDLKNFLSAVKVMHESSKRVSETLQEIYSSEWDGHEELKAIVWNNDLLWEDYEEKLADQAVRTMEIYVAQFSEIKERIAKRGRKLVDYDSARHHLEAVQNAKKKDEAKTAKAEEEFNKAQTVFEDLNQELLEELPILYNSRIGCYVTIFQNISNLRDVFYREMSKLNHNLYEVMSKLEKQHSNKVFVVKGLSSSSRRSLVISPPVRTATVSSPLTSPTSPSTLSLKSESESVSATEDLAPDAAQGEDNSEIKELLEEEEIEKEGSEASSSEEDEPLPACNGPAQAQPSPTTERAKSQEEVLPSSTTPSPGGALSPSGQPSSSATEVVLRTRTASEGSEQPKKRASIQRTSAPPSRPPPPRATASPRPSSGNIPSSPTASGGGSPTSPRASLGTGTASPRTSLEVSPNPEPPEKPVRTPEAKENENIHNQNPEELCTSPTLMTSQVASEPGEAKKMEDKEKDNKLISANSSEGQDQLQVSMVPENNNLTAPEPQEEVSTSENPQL

Calmodulin (human) = Calmodulin (human) (UniProt P0DP23)
Filamin-A (human) = Filamin-A (human) (UniProt P21333)
Gelsolin (human) = Gelsolin (human) (UniProt P06396)
Histone H4 (human) = Histone H4 (human) (UniProt P62805)
Hornerin (human) = Hornerin (human) (UniProt Q86YZ3)
[6] = biological target: Isoform 2 of Adenylyl cyclase-associated protein 1 (human) (UniProt Q01518)
[7] = biological target: Isoform 2 of Ras suppressor protein 1 (human) (UniProt Q15404)
Isoform 2 of Ras suppressor protein 1 (human), sequence (Q15404 54-277 limits assumed): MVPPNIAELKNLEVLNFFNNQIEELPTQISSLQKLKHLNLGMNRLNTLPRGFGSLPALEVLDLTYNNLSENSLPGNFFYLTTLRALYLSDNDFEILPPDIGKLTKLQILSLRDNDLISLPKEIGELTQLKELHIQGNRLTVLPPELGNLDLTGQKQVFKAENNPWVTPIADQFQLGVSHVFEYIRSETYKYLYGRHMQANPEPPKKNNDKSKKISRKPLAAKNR

[8] = biological target: Isoform H14 of Myeloperoxidase (human) (UniProt P05164)
Isoform H14 of Myeloperoxidase (human), sequence (P05164 165-745 limits assumed): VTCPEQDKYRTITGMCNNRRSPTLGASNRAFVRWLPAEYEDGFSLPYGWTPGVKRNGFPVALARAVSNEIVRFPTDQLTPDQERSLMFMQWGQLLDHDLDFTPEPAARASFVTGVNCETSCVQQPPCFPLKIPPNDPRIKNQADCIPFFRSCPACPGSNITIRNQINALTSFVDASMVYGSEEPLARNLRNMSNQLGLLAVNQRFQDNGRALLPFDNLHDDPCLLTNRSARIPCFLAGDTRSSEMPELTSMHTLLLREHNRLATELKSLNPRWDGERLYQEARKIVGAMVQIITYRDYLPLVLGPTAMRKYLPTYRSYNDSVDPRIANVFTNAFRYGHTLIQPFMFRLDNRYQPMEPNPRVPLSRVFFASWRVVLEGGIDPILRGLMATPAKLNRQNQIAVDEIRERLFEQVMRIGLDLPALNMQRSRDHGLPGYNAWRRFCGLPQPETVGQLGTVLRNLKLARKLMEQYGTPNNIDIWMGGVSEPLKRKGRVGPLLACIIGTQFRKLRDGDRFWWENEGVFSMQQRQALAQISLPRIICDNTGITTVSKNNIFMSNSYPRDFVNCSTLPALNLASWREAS

[9] = biological target: Isoform SV of 14-3-3 protein epsilon (human) (UniProt P62258)
[10] = biological target: Isoform Short of 14-3-3 protein beta/alpha (human) (UniProt P31946)
Isoform Short of 14-3-3 protein beta/alpha (human), sequence (P31946 3-246 limits assumed): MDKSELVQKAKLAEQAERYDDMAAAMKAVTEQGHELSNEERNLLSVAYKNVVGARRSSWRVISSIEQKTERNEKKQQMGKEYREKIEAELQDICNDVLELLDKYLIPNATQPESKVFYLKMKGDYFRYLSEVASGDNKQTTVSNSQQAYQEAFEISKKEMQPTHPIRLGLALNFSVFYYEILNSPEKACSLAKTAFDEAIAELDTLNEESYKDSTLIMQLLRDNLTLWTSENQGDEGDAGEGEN

Myosin-9 (human) = Myosin-9 (human) (UniProt P35579)
[11] = biological target: Nuclear autoantigenic sperm protein (human) (UniProt P49321)
[12] = biological target: Protein disulfide-isomerase (human) (UniProt P07237)
Protein disulfide-isomerase (human), sequence (P07237 18-508 limits assumed): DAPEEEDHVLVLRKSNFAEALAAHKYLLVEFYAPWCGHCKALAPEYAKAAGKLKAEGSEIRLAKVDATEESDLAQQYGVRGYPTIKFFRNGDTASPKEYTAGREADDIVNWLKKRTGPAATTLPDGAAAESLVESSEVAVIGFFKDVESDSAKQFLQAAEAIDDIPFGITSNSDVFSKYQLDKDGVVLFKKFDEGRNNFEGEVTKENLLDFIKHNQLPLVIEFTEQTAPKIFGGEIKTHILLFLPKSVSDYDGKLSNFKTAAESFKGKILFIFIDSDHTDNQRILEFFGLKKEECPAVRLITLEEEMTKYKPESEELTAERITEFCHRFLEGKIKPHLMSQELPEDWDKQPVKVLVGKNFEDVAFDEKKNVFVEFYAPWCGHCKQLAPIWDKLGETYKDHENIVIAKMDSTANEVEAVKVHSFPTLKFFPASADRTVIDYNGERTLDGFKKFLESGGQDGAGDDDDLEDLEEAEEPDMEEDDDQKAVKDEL

[13] = biological target: Protein disulfide-isomerase A4 (human) (UniProt P13667)
Thrombospondin-1 (human) = Thrombospondin-1 (human) (UniProt P07996)
Thrombospondin-1 (human), sequence (P07996 19-1170 limits assumed): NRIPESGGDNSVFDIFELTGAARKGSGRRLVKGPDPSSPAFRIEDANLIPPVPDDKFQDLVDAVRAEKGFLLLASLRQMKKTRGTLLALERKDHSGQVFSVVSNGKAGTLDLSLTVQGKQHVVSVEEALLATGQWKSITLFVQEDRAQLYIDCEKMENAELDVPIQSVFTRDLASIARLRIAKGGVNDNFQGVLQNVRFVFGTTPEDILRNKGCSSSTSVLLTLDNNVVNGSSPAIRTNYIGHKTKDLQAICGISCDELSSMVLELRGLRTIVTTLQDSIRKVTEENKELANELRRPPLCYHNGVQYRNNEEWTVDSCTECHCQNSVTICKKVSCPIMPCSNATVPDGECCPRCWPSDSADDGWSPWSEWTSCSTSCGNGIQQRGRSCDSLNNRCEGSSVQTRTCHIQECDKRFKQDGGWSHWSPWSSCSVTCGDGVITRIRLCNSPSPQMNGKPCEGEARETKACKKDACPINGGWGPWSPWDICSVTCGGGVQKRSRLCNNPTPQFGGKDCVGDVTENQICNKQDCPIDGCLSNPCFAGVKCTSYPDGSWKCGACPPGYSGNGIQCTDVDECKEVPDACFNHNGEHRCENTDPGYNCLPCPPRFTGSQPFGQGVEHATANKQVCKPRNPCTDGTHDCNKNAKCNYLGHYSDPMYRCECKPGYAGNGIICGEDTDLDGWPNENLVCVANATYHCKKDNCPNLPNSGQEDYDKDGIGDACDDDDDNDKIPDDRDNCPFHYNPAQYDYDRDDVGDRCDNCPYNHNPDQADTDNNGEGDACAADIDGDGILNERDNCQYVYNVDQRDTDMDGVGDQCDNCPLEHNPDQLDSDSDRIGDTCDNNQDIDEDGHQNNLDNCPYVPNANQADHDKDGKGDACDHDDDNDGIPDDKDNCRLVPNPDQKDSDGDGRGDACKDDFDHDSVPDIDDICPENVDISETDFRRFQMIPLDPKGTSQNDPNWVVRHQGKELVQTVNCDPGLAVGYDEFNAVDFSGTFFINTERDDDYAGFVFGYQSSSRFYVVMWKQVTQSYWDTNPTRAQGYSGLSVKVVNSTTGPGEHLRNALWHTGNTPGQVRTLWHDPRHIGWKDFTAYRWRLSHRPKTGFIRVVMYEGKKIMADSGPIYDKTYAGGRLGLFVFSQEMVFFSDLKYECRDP

Tropomodulin-3 (human) = Tropomodulin-3 (human) (UniProt Q9NYL9)
[14] = biological target: Tropomyosin alpha-3 chain (human) (UniProt P06753)
[15] = biological target: Tropomyosin alpha-4 chain (human) (UniProt P67936)
Tropomyosin alpha-4 chain (human), sequence (P67936 2-248 limits assumed): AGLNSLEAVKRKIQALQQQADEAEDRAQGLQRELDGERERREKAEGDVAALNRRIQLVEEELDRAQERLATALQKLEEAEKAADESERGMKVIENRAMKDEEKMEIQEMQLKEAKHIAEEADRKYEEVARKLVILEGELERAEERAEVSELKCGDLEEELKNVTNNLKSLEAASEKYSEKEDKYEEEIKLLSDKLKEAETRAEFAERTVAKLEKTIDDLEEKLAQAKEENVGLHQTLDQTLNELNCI

Vimentin (human) = Vimentin (human) (UniProt P08670)

14-3-3 protein zeta/delta (human), sequence (P63104 whole entry, stated change not applied): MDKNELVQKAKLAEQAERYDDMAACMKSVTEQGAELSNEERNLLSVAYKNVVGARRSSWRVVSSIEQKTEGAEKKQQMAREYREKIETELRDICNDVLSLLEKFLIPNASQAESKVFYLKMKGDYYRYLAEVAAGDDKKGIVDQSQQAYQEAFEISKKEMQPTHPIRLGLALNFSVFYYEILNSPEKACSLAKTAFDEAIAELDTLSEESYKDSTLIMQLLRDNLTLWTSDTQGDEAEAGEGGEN
14-3-3 protein theta (human), sequence (P27348 whole entry): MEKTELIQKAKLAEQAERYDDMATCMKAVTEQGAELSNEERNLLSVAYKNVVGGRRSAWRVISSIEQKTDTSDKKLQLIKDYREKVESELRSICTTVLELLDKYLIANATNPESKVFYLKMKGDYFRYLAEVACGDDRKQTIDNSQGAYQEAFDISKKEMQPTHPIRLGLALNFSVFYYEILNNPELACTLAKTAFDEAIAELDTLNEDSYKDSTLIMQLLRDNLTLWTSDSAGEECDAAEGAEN

PIF15 affinity resin (Cys-C6 spacer-PIF15 conjugated to agarose) (peptide)
Ave [1]: 1 | Inject 1 [1]: 1 | Inject 2 [1]: 1 | Inject 3 [1]: 2 | Ave [2]: 4 | Inject 1 [2]: 4 | Inject 2 [2]: 3 | Inject 3 [2]: 4 | Ave [3]: 4 | Inject 1 [3]: 6 | Inject 2 [3]: 3 | Inject 3 [3]: 3 | Ave [4]: 4 | Inject 1 [4]: 5 | Inject 2 [4]: 4 | Inject 3 [4]: 3 | Ave [5]: 1 | Inject 1 [5]: 1 | Inject 2 [5]: 2 | Inject 3 [5]: 0 | Ave (Calmodulin (human)): 4 | Inject 1 (Calmodulin (human)): 6 | Inject 2 (Calmodulin (human)): 4 | Inject 3 (Calmodulin (human)): 3 | Ave (Filamin-A (human)): 5 | Inject 1 (Filamin-A (human)): 5 | Inject 2 (Filamin-A (human)): 3 | Inject 3 (Filamin-A (human)): 7 | Ave (Gelsolin (human)): 2 | Inject 1 (Gelsolin (human)): 3 | Inject 2 (Gelsolin (human)): 1 | Inject 3 (Gelsolin (human)): 1 | Ave (Histone H4 (human)): 2 | Inject 1 (Histone H4 (human)): 3 | Inject 2 (Histone H4 (human)): 0 | Inject 3 (Histone H4 (human)): 2 | Ave (Hornerin (human)): 1 | Inject 1 (Hornerin (human)): 1 | Inject 2 (Hornerin (human)): 0 | Inject 3 (Hornerin (human)): 2 | Ave [6]: 3 | Inject 1 [6]: 4 | Inject 2 [6]: 3 | Inject 3 [6]: 2 | Ave [7]: 1 | Inject 1 [7]: 0 | Inject 2 [7]: 1 | Inject 3 [7]: 2 | Ave [8]: 2 | Inject 1 [8]: 2 | Inject 2 [8]: 2 | Inject 3 [8]: 2 | Ave [9]: 3 | Inject 1 [9]: 4 | Inject 2 [9]: 4 | Inject 3 [9]: 2 | Ave [10]: 3 | Inject 1 [10]: 3 | Inject 2 [10]: 3 | Inject 3 [10]: 4 | Ave (Myosin-9 (human)): 10 | Inject 1 (Myosin-9 (human)): 11 | Inject 2 (Myosin-9 (human)): 9 | Inject 3 (Myosin-9 (human)): 10 | Ave [11]: 1 | Inject 1 [11]: 2 | Inject 2 [11]: 0 | Inject 3 [11]: 1 | Ave [12]: 2 | Inject 1 [12]: 3 | Inject 2 [12]: 2 | Inject 3 [12]: 2 | Ave [13]: 2 | Inject 1 [13]: 4 | Inject 2 [13]: 1 | Inject 3 [13]: 2 | Ave (Thrombospondin-1 (human)): 7 | Inject 1 (Thrombospondin-1 (human)): 7 | Inject 2 (Thrombospondin-1 (human)): 5 | Inject 3 (Thrombospondin-1 (human)): 8 | Ave (Tropomodulin-3 (human)): 1 | Inject 1 (Tropomodulin-3 (human)): 1 | Inject 2 (Tropomodulin-3 (human)): 2 | Inject 3 (Tropomodulin-3 (human)): 1 | Ave [14]: 4 | Inject 1 [14]: 4 | Inject 2 [14]: 2 | Inject 3 [14]: 5 | Ave [15]: 8 | Inject 1 [15]: 8 | Inject 2 [15]: 7 | Inject 3 [15]: 8 | Ave (Vimentin (human)): 10 | Inject 1 (Vimentin (human)): 9 | Inject 2 (Vimentin (human)): 11 | Inject 3 (Vimentin (human)): 9
